Consider three molecules from US20160187355A1 (AUGUSTA UNIVERSITY RESEARCH INSTITUTE, published 2016).

Test [1] concerns the target LRP4N-Myc (rat) (UniProt Q9QYP1). As to the kind of experiment: solid phase binding of MuSK-AP to coated LRP4, Scatchard plot.
The target of a further test is T1, LRP4-Myc (UniProt Q9QYP1 21-1905).
T1 construct: whole, on cells; also called Myc-tagged full length LRP4; not shown: Myc tag of pcDNA3.1-MycHis; His tag of pcDNA3.1-MycHis
The experiment in a line: solid phase binding: purified LRP4-Myc (name as in the legend) coated on plate, bound AP activity with pNPP. As for the experimental part:
FIG. 6A-G. Direct interaction between LRP4 and MuSK. […] Flag-MuSKect immobilized on beads were incubated with condition media of cells expressing the extracellular domains of LRP4 (LRP4N-Myc) or the empty vector (control) in the presence or absence of neuronal agrin. Precipitated LRP4 was analyzed by immunoblot with anti-Myc antibody. […] FIG. 6B is a quantitative analysis of LRP4N-Myc and Flag-MuSK. Data shown were mean±SEM, n=3; *, p <0.05 in comparison with the no-agrin group. […] Purified LRP4-Myc was coated on Maxi-Sorp Immuno Plates, which were incubated with MuSK-AP. Bound AP was measured with pNPP as substrate. Data shown were mean±SEM. n=4. FIG. 6D is a Scatchard plot of data in FIG. 6C. Y axis represents the ratio of bound to free MuSK-AP whereas X axis represents the concentration of bound MuSK-AP. […] Experiments were done as in FIG. 6A except condition medium of cells expressing the extracellular domain of LRP6 was used. […] HEK293 cells were transfected with LRP4 and/or Flag-MuSK. Lysates were incubated with anti-Flag antibody, and resulting immunocomplex was analyzed for LRP4 and Flag. Lysates were also probed to indicate equal amounts of indicated proteins. […]
Solid phase binding assay. […] Coated wells were incubated with purified AP fusion proteins and the AP activity was measured using pNPP as substrate.

Test [2] deals with LRP4N-Myc (rat) (UniProt Q9QYP1). As to the kind of experiment: solid phase binding of nAgrin-AP to coated LRP4, Scatchard plot.
Test [3] has the same target. As to the kind of experiment: solid phase binding: purified LRP4 (legend: LRP4-Myc; paragraph 111: LRP4N-Myc) coated on plate, bound AP activity with pNPP.
Test [4] has as its target T2, full length LRP4 (pcDNA-LRP4) (UniProt Q9QYP1 21-1905, limits assumed).
T2 construct: whole, on cells; Expressed in transfected C2C12 myoblasts or HEK293 cells; also called exogenous LRP4
The experiment in a line: intact cell binding on transfected C2C12 myoblasts, BCIP/NBT staining quantified. As for the experimental part:
FIG. 4A-G. Expression of LRP4 enables binding activity for neuronal agrin and MuSK signaling. […] C2C12 myoblasts were transfected by empty vector (control), LRP4 and/or Flag-MuSK. 36 hr after transfection, myoblasts were incubated with AP alone, mAgrin-AP or nAgrin-AP for 90 min at room temperature. Endogenous AP was inactivated by heating and bound AP was visualized in cells by staining with BCIP/NBT. FIG. 4B is a quantification of data in FIG. 4A. Data shown were mean±SEM. n=6; *, P<0.05 in comparison with mAgrin-AP of the same group or nAgrin-AP in the control group. FIG. 4C and FIG. 4D show nAgrin-AP bound to HEK293 cells expressing LRP4, but not those expressing LRP5. HEK293 cells were transfected without (control) or with LRP4-Myc (FIG. 4C) or LRP5-Myc (FIG. 4D). 36 hr after transfection, transfected cells were incubated with nAgrin-AP or mAgrin-AP. In some experiments, control cells were incubated with nAgrin-AP. After heat inactivation of endogenous AP, lysates were assayed for transfected AP using pNPP as substrate. […] In FIG. 4E, lysates were incubated with anti-Flag antibody, and resulting immunocomplex was analyzed with anti-phosphotyrosine antibody 4G10. […] FIG. 4G is a quantitative analysis of data in FIG. 4E and FIG. 4F. MuSK and Abl phosphorylation was quantified by using the ImageJ software. […]

LRP4N-Myc (rat), sequence (Q9QYP1 21-1723): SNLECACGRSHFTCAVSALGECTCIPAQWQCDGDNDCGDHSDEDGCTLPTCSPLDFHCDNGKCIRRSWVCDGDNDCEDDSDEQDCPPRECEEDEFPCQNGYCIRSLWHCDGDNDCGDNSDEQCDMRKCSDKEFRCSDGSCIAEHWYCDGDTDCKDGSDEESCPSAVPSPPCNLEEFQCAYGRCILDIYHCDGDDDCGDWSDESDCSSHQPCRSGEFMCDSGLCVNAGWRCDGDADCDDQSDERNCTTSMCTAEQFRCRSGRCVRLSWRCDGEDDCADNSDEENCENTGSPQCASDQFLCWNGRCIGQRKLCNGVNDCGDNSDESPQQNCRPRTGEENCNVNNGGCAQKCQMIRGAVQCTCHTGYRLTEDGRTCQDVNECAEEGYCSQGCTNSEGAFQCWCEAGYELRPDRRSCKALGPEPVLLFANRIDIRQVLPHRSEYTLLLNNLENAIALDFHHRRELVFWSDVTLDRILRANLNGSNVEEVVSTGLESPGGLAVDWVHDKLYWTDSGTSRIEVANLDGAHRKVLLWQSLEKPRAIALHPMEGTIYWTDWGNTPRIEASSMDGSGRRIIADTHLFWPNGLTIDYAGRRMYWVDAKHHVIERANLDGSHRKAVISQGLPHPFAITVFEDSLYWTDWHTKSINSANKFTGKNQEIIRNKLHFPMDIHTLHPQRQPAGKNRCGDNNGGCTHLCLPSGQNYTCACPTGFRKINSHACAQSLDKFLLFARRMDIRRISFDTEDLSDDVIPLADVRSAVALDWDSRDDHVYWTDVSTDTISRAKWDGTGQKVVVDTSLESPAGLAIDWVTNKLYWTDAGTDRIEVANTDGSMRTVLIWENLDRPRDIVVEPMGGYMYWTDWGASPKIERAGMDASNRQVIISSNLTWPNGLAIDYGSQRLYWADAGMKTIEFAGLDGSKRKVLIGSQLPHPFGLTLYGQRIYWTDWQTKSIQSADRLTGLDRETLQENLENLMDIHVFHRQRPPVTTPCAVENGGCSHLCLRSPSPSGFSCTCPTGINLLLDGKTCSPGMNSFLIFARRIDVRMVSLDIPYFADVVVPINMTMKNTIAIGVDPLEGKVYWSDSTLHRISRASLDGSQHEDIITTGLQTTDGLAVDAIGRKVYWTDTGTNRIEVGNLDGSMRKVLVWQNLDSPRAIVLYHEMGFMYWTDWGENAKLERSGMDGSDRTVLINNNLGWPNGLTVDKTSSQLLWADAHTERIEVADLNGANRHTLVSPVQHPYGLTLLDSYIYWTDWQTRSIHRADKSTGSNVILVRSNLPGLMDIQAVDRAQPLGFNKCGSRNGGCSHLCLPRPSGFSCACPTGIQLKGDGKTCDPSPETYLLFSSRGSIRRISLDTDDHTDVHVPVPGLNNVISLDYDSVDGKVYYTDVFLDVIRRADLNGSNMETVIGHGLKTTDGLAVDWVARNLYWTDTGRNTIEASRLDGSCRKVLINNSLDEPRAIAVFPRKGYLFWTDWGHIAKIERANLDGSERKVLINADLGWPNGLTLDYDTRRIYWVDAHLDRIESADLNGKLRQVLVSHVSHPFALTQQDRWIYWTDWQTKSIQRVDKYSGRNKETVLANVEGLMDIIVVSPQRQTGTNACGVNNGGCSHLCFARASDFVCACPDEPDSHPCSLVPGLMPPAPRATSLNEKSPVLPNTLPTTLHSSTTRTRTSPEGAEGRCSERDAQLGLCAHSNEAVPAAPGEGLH
T1 sequence (Q9QYP1 21-1905): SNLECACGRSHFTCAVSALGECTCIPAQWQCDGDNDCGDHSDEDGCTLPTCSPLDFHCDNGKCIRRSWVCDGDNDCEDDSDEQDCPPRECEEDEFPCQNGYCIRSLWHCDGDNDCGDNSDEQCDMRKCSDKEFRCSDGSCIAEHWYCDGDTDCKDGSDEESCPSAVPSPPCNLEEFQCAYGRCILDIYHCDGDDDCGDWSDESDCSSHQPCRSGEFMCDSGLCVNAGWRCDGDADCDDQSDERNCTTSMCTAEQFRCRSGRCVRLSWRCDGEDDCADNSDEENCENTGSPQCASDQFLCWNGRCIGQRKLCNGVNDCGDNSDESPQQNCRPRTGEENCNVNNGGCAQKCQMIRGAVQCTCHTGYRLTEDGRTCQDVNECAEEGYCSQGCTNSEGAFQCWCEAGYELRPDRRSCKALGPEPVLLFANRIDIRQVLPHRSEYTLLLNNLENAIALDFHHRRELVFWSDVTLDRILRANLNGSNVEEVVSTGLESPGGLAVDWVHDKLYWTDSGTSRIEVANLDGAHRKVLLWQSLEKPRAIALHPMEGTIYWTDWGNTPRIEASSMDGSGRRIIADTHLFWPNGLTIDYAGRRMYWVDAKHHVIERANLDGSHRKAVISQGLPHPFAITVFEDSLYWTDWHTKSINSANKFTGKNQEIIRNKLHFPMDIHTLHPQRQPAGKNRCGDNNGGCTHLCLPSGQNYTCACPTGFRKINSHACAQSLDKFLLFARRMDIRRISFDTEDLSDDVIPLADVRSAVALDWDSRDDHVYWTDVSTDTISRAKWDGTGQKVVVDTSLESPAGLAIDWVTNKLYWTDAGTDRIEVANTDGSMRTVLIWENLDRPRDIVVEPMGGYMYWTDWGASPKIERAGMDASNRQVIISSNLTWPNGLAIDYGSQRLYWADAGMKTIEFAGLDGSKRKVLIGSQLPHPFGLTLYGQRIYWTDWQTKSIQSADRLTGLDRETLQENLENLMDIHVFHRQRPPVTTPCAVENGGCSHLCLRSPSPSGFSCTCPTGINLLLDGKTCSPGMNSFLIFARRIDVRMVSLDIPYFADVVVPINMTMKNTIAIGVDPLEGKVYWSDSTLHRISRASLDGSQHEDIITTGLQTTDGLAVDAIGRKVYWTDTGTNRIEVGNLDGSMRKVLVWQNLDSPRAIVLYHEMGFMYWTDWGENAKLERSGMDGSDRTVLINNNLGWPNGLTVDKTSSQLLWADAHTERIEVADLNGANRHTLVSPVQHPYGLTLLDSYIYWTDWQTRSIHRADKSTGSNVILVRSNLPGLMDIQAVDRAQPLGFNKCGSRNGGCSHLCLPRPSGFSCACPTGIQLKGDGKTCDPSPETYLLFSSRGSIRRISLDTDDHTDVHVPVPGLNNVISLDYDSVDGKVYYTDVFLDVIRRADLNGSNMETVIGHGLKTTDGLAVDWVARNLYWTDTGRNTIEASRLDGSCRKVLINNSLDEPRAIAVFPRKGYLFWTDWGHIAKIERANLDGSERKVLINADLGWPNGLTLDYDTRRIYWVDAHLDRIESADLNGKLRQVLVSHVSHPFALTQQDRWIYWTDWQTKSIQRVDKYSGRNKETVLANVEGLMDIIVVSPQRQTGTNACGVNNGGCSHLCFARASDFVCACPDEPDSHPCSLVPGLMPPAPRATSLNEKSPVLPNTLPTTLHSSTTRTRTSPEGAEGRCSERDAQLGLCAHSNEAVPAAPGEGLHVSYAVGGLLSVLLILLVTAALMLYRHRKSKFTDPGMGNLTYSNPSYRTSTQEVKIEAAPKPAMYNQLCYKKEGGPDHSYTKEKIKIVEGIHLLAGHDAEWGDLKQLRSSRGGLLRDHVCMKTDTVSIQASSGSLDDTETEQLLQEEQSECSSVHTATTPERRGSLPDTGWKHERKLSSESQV
T2 sequence (Q9QYP1 21-1905 limits assumed): as the sequence (Q9QYP1 21-1905) above

As for “MuSK-AP (from UniProt P05187 23-511) (receptor)”, in the test with LRP4N-Myc (rat) [1], the Kd was 0.45 nM. The molecule further yielded an EC50 (read off the curve) with LRP4-Myc of 0.3 nM.
With “nAgrin-AP (from UniProt P25304 1145-1940) (ligand)”, in the test with LRP4N-Myc (rat) [2], the Kd amounted to 0.5 nM. In addition, the EC50 (read off the curve) in the test with LRP4N-Myc (rat) [3] was 0.4 nM.

B1: AP alone (enzyme, human, UniProt P05187 23-511, looked up)
chain: IIPVEEENPDFWNREAAEALGAAKKLQPAQTAAKNLIIFLGDGMGVSTVTAARILKGQKKDKLGPEIPLAMDRFPYVALSKTYNVDKHVPDSGATATAYLCGVKGNFQTIGLSAAARFNQCNTTRGNEVISVMNRAKKAGKSVGVVTTTRVQHASPAGTYAHTVNRNWYSDADVPASARQEGCQDIATQLISNMDIDVILGGGRKYMFRMGTPDPEYPDDYSQGGTRLDGKNLVQEWLAKRQGARYVWNRTELMQASLDPSVTHLMGLFEPGDMKYEIHRDSTLDPSLMEMTEAALRLLSRNPRGFFLFVEGGRIDHGHHESRAYRALTETIMFDDAIERAGQLTSEEDTLSLVTADHSHVFSFGGYPLRGSSIFGLAPGKARDRKAYTVLLYGNGPGYVLKDGARPDVTESESGSPEYRQQSAVPLDEETHAGEDVAVFARGPQAHLVHGVQEQTFIAHVMAFAACLEPYTACDLAPPAGTTDAAHPG
notes: Control protein; also called control (empty pAPtag-5)
As to B1, the figures for the binding result (in test [4]; in the test with LRP4-Myc) were “no binding (tested: 5 nM (not printed on the sheet))” and “no binding (tested: 1000 nM)”, respectively.
